One molecule from article PMC12591191 (2025) can be followed below.

Where no end group is shown, it is not given here. The star is where a group is joined. Biotin = O=C1N[C@H]2[C@H](CS[C@H]2CCCCC(=O)*)N1; Myristoyl = CCCCCCCCCCCCCC(=O)*

For test [1], the target named is T1, SIRT6 S56Y (human, UniProt Q8N6T7 1-355, S56Y). The test can be described thus: BLI; Mg2+. Background: Biolayer interferometry detects binding as a change in optical thickness at a sensor tip.
Test [2] deals with T2, SIRT6 R65A (human, UniProt Q8N6T7 1-355, R65A). Put plainly: BLI; Mg2+.
The target of test [3] is T3, SIRT6 H133Y (human, UniProt Q8N6T7 1-355, H133Y). Put plainly: BLI; Mg2+.
Test [4] concerns the target T1, SIRT6 S56Y. The test can be described thus: BLI.
A further test has as its target SIRT6 G60A (Homo sapiens). The test can be described thus: BLI.
Test [5] concerns the target T2, SIRT6 R65A. Put plainly: BLI.
For test [6], the target named is T3, SIRT6 H133Y. The test can be described thus: BLI.

T2 sequence (Q8N6T7 whole entry R65A): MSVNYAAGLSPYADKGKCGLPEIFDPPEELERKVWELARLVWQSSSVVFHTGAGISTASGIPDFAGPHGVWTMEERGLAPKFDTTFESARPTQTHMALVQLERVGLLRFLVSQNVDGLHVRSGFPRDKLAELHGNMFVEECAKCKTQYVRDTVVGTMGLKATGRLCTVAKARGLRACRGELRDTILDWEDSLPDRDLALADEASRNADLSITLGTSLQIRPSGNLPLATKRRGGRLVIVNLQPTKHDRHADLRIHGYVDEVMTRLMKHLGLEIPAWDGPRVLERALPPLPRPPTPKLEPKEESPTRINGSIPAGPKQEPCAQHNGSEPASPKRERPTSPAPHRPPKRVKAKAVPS
T3 sequence (Q8N6T7 whole entry H133Y): as the sequence (Q8N6T7 whole entry R65A) above, with A65R, H133Y counted along it
T1 sequence (Q8N6T7 whole entry S56Y): as the sequence (Q8N6T7 whole entry R65A) above, with S56Y, A65R counted along it
Chain of SIRT6 G60A (Homo sapiens) (chain, as listed by the source G60A): as the sequence (Q8N6T7 whole entry R65A) above, with G60A, A65R counted along it

The term Kd denotes the free concentration of one partner at which half of the binding sites on the other are occupied at equilibrium, for simple one-to-one binding. Higher therefore signals weaker binding. For the molecule Biotin-KQTARK(Myristoyl)STGGKARRRRR [B-H3K9^Myr-5R (biotin-KQTARK^MyrSTGGKARRRRR)], the Kd turned out to be 610 nM with SIRT6 S56Y [1]; 1800 nM with SIRT6 R65A [2]; 680 nM with SIRT6 H133Y [3]; 1600 nM in the test with SIRT6 S56Y [4]; 1300 nM in the test with SIRT6 G60A; 2000 nM with SIRT6 R65A [5]. The molecule also had a Kd with SIRT6 H133Y [6] of 3200 nM.
